Measured values as given in patent US20150023988A1.
Read-outs that look alike come from different tables or passages of the source.

Key:
Test in all cases: cell-based or functional assay
[1] = biological target: human voltage-gated sodium channel Nav1.3 (human) (UniProt Q9NY46)
[2] = biological target: human voltage-gated sodium channel Nav1.5 (human) (UniProt Q14524)
[3] = biological target: human voltage-gated sodium channel Nav1.7 (human) (UniProt Q15858)
[4] = biological target: human voltage-gated sodium channel Nav1.4 (human) (UniProt P35499)
[5] = biological target: human voltage-gated sodium channel Nav1.7 (human) (UniProt Q15858); remark: listed apart in the source
[6] = biological target: human voltage-gated sodium channel Nav1.5 (human) (UniProt Q14524); remark: listed apart in the source
[7] = biological target: human voltage-gated sodium channel Nav1.4 (human) (UniProt P35499); remark: listed apart in the source

Chain of human voltage-gated sodium channel Nav1.4 (human) (P35499 whole entry): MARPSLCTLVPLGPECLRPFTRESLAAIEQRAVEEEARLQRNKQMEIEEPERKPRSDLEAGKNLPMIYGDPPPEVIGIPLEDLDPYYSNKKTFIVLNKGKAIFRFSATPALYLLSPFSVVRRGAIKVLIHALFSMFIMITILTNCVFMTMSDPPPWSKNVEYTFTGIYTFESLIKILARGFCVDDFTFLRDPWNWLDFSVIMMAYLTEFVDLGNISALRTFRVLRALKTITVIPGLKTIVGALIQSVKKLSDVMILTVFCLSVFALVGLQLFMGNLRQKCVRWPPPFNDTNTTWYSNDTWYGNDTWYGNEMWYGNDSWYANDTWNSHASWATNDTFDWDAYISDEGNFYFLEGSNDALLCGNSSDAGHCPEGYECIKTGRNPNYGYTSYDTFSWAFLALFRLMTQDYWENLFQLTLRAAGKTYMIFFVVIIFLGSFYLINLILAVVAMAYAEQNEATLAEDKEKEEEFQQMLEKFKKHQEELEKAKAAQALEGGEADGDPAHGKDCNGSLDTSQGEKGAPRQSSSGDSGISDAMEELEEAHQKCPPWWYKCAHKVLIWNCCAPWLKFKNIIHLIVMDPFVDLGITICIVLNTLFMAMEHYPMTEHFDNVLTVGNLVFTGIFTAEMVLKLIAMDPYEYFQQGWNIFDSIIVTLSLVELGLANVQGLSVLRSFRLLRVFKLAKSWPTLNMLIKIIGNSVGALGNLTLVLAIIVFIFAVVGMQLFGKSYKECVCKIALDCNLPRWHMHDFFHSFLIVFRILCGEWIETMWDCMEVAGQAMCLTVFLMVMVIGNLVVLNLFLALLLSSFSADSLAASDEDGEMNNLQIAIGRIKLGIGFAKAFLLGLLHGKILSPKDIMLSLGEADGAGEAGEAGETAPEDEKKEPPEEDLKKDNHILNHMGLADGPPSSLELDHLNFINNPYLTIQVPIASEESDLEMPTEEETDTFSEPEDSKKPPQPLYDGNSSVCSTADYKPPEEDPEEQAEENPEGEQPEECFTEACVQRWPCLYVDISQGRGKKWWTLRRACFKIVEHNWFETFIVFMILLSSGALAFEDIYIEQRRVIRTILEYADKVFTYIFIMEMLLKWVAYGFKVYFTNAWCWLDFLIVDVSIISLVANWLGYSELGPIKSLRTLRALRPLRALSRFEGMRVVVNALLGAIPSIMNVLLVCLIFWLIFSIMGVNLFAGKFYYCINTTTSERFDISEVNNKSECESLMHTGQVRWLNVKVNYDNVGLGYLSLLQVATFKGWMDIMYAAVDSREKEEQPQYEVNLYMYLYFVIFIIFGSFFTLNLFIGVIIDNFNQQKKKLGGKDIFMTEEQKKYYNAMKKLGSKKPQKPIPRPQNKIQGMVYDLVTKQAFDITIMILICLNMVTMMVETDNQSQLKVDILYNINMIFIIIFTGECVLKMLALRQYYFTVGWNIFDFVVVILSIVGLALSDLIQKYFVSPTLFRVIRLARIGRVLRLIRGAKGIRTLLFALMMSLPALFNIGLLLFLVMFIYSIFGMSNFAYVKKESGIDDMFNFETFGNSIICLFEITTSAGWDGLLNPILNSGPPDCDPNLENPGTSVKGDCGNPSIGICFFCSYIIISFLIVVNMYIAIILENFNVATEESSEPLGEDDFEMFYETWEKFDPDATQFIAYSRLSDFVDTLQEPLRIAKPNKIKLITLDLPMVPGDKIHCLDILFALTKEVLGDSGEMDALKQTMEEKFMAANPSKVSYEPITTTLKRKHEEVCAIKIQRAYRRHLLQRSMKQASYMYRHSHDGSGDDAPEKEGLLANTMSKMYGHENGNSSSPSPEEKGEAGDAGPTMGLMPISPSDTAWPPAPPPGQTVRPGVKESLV
Chain of human voltage-gated sodium channel Nav1.7 (human) (Q15858 whole entry): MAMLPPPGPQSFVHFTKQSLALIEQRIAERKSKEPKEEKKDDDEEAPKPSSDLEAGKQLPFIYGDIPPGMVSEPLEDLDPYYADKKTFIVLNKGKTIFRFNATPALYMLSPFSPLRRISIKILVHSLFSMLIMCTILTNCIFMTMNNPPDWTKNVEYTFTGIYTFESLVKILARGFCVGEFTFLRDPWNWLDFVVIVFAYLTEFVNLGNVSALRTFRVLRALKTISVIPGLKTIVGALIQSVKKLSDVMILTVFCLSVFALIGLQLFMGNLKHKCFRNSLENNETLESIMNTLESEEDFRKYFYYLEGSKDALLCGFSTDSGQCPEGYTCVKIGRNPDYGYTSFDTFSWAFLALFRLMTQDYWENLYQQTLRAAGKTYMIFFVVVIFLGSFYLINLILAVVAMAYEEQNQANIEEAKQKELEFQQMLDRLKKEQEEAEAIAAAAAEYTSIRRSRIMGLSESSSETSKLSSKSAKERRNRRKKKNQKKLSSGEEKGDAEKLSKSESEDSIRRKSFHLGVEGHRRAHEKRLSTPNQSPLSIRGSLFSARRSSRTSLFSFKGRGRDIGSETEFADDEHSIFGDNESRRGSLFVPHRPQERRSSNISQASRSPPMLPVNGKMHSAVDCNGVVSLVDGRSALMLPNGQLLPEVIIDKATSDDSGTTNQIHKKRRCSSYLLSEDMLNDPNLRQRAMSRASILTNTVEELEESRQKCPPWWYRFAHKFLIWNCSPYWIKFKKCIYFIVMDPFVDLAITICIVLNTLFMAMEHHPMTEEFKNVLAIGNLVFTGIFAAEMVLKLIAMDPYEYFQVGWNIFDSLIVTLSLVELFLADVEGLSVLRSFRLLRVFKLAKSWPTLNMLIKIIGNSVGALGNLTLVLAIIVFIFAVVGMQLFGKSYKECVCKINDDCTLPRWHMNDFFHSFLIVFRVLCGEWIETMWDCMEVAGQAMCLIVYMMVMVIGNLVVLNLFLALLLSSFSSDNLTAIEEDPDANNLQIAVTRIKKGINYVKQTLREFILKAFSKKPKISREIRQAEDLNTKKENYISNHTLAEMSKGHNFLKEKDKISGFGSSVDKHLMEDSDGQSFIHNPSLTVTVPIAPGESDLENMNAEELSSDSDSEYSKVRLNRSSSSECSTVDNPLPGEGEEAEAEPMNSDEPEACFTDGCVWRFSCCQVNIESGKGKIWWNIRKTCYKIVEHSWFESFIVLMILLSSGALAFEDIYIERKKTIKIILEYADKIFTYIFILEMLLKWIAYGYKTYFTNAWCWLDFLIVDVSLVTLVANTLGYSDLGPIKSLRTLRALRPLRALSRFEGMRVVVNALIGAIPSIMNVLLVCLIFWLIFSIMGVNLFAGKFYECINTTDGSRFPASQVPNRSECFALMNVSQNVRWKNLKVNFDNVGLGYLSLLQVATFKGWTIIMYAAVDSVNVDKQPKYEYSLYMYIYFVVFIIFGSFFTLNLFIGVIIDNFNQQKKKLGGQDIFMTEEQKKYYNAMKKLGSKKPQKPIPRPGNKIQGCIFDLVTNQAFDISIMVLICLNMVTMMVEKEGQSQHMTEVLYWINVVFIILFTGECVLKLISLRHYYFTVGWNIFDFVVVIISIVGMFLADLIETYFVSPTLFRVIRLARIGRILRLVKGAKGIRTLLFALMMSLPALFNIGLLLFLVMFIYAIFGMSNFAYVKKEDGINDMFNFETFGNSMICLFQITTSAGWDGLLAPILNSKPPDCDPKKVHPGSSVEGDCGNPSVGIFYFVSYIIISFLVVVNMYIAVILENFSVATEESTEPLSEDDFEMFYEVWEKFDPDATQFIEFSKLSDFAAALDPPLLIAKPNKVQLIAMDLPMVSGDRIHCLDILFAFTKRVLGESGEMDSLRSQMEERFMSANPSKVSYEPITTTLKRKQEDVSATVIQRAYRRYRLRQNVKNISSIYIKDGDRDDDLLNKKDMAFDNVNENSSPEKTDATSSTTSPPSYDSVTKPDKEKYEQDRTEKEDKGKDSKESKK

| Substance | PX hNav1.7 Tonic IC50 [5] [nM] | PX hNav1.5 Tonic IC50 [6] [nM] | PX hNav1.4 Tonic IC50 [7] [nM] | other results |
| --- | --- | --- | --- | --- |
| [Cit7;Glu20;Tyr28]JzTx-V(1-29) (peptide) |  |  |  | IC50 (IonWorks Quattro) [1]: > 7000 nM; IC50 (IonWorks Quattro) [2]: > 7000 nM; IC50 (IonWorks Quattro) [3]: 5800 nM; IC50 (IonWorks Quattro) [4]: > 7000 nM |
| [Nle6; AzK11; Glu20; Trp29]JzTx-V(1-29) (peptide) | 435 |  |  |  |
| [Nle6; Pra11; Glu20; Tyr28]JzTx-V(1-29) (peptide) | 1.28 | 2460 | 825 |  |
| [Nle6; Pra11; Glu20]JzTx-V(1-29) (peptide) | 18.4 | 3550 | 4220 |  |
| [Nle6; Pra14; Glu20; Tyr28]JzTx-V(1-29) (peptide) | 1.76 | 3690 | 707 |  |
| [Nle6; Pra14; Glu20]JzTx-V(1-29) (peptide) | 7.16 | 4570 | 1660 |  |
| [Nle6;Pra11;Glu20;Trp29]JzTx-V(1-29) (peptide) |  |  |  | IC50 (IonWorks Quattro) [5]: 26 nM |
| [Nva7;Glu20;Tyr28]JzTx-V(1-29) (peptide) |  |  |  | IC50 (IonWorks Quattro) [1]: > 7000 nM; IC50 (IonWorks Quattro) [2]: > 7000 nM; IC50 (IonWorks Quattro) [3]: 4500 nM; IC50 (IonWorks Quattro) [4]: > 7000 nM |
